Here are results for one molecule from patent US8470548 (INTRA CELLULAR THERAPIES, dated 2013).

Assay [1] concerns the target T1, third intracellular loop of the rat 5-HT1B receptor (amino acids 226-311), GAL4 DNA-binding domain fusion … (rat, UniProt P04386 1-147; P28564 226-311).
T1 construct: Yeast two-hybrid bait in a pAS2-derived vector; also called 5-HT1B receptor-bait; 5-HT1B receptors
The experiment in a line: yeast two-hybrid, co-transformation of p11 prey and bait, -LWH medium and X-gal overlay.

In assay [2] the target is T2, third intracellular loop of the 5-HT1A receptor (amino acids 218-345), bait construct (rat, UniProt P04386 1-147; P19327 218-345).
T2 construct: Yeast two-hybrid bait in the pAS2-derived vector
The experiment in a line: yeast two-hybrid, growth on -LWH medium and X-gal overlay.

Assay [3] addresses bait control vector (empty plasmid) (UniProt P04386 1-147). The assay is described as above.
Assay [4] deals with T3, third intracellular loop of the 5-HT6 receptor (amino acids 209-265), bait construct (rat, UniProt P04386 1-147; P31388 209-265).
T3 construct: Yeast two-hybrid bait in the pAS2-derived vector
Described as above.

B1: p11 (rat; prey clone from the pACT2 rat brain cDNA library) (other, UniProt P05943 1-95, looked up)
chain: MPSQMEHAMETMMLTFHRFAGEKNYLTKEDLRVLMEREFPGFLENQKDPLAVDKIMKDLDQCRDGKVGFQSFLSLVAGLIIACNDYFVVHMKQKK
notes: Yeast two-hybrid prey; identified by BLAST search of the prey inserts; also called p11 prey; annexin-II light chain; not shown: fusion partner encoded by the pACT2 prey vector
As for B1, the binding result is on record as “binds” in assay [1], “no binding” in assay [2], “no binding” in assay [3] and “no binding” in assay [4].
